The values that follow come from publication PMC4546648.

As usually defined, the Kd is the concentration at which binding is half-saturated. A high value points to lower affinity.

In the test the target is GST-K15P cytoplasmic domain (aa 347-489) (Kaposi's sarcoma herpesvirus (KSHV, HHV-8)) (UniProt Q9QR69). The test can be described thus: SPR; Biacore X100; GST-K15P cytoplasmic tail amine-coupled to a CM4 chip (207 RU); His-tagged PLCγ2 cSH2 wt or SB injected at 1.5, 3, 6, 12, 24 nM, single cycle kinetics, 30 μl/min, HBS-EP buffer pH 7.4. (In SPR one partner is held on a chip, and binding of the other changes the refractive index at the surface.)

Consider “His-tagged PLCγ2 cSH2 S677V/R695L superbinder, purified from E. coli (domain or fragment)”, for which the Kd was found to be 3.8 nM.

In the case of “His-tagged PLCγ2 cSH2 domain wt, purified from E. coli (from UniProt P16885 1-1265) (domain or fragment)”, the Kd came out at 5.8 nM.
